Drawing on the supplement of paper PMC10567573, this text covers protein stability index for 94 variants.

B1: FBF1 (parent)
chain: LQRASILDMRRDHEEQLQRLKLLK
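Also: lentivirally expressed fusions sorted by FACS into six bins by GFP to DsRed ratio, PSI derived from sequencing read proportions per bin multiplied by bin number.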

The series covers variants of B1. The experiment in a line: protein stability index of a GFP-peptide fusion (GPS, HEK-293T) (PSI 1-6); higher = more stable. Particulars: c terminus: a fixed tail appended.
Regarding LQRASILDMRRYHEEQLQRLKLLK [D12Y], the protein stability index is 3.37.

As to LQRASILDMRRDHEHQLQRLKLLK [E15H], the protein stability index was determined as 3.09.

For LQRASILDMRRDHENQLQRLKLLK [E15N], the protein stability index worked out at 2.91.

As for LQRASILDMRRDHELQLQRLKLLK [E15L], the protein stability index turned out to be 2.56.

Consider LQRASILDMRRDHERQLQRLKLLK [E15R], for which the protein stability index amounted to 3.22.

In the case of LQRASILDMRRDHEFQLQRLKLLK [E15F], the protein stability index is 2.68.

On to LQRASILDMRRDHESQLQRLKLLK [E15S], for which the protein stability index was found to be 2.96.

With LQRASILDMRRDHEYQLQRLKLLK [E15Y], the protein stability index was 2.84.

On to LQRASILDMRRDHEPQLQRLKLLK [E15P], for which the protein stability index stood at 3.22.

On to LQRASILDMRRDHEIQLQRLKLLK [E15I], for which the protein stability index was determined as 2.37.

On to LQRASILDMRRDHEWQLQRLKLLK [E15W], for which the protein stability index was determined as 2.29.

Take LQRASILDMRRDHEAQLQRLKLLK [E15A]: the protein stability index is 3.4.

Consider LQRASILDMRRDHEQQLQRLKLLK [E15Q], for which the protein stability index was 3.18.

Take LQRASILDMRRDHETQLQRLKLLK [E15T]: the protein stability index was determined as 3.39.

For the variant LQRASILDMRRDHEGQLQRLKLLK [E15G], the protein stability index worked out at 3.56.

Take LQRASILDMRRDHECQLQRLKLLK [E15C]: the protein stability index stood at 2.5.

For LQRASILDMRRDHEVQLQRLKLLK [E15V], the protein stability index was 3.13.

In the case of LQRASILDMRRDHEMQLQRLKLLK [E15M], the protein stability index came out at 3.12.

Take LQRASILDMRRDHEKQLQRLKLLK [E15K]: the protein stability index turned out to be 3.04.

LQRASILDMRRDHEDQLQRLKLLK [E15D]: the protein stability index stood at 3.34.

For the variant LQRASILDMRRDHEEQQQRLKLLK [L17Q], the protein stability index stood at 4.52.

As for LQRASILDMRRDHEEQGQRLKLLK [L17G], the protein stability index amounted to 4.03.

Take LQRASILDMRRDHEEQSQRLKLLK [L17S]: the protein stability index amounted to 3.77.

As to LQRASILDMRRDHEEQDQRLKLLK [L17D], the protein stability index was 4.23.

Regarding LQRASILDMRRDHEEQEQRLKLLK [L17E], the protein stability index was 4.07.

For LQRASILDMRRDHEEQCQRLKLLK [L17C], the protein stability index came out at 3.55.

Consider LQRASILDMRRDHEEQAQRLKLLK [L17A], for which the protein stability index stood at 3.9.

For the variant LQRASILDMRRDHEEQVQRLKLLK [L17V], the protein stability index turned out to be 3.87.

In the case of LQRASILDMRRDHEEQNQRLKLLK [L17N], the protein stability index was determined as 3.91.

With LQRASILDMRRDHEEQIQRLKLLK [L17I], the protein stability index turned out to be 3.91.

LQRASILDMRRDHEEQRQRLKLLK [L17R]: the protein stability index amounted to 3.54.

For the variant LQRASILDMRRDHEEQKQRLKLLK [L17K], the protein stability index came to 4.05.

For the variant LQRASILDMRRDHEEQTQRLKLLK [L17T], the protein stability index was found to be 4.19.

As to LQRASILDMRRDHEEQMQRLKLLK [L17M], the protein stability index was 3.72.

For LQRASILDMRRDHEEQFQRLKLLK [L17F], the protein stability index is 3.17.

As to LQRASILDMRRDHEEQHQRLKLLK [L17H], the protein stability index was determined as 4.

Turning to LQRASILDMRRDHEEQPQRLKLLK [L17P], the protein stability index was determined as 4.63.

Consider LQRASILDMRRDHTEQLQRLKLLK [E14T], for which the protein stability index was determined as 2.96.

Turning to LQRASILDMRRDHNEQLQRLKLLK [E14N], the protein stability index was 2.86.

On to LQRASILDMRRDHLEQLQRLKLLK [E14L], for which the protein stability index stood at 3.17.

Take LQRASILDMRRDHWEQLQRLKLLK [E14W]: the protein stability index came out at 2.69.

Take LQRASILDMRRDHYEQLQRLKLLK [E14Y]: the protein stability index is 3.04.

LQRASILDMRRDHKEQLQRLKLLK [E14K]: the protein stability index was found to be 3.43.

Consider LQRASILDMRRDHQEQLQRLKLLK [E14Q], for which the protein stability index amounted to 3.49.

With LQRASILDMRRDHHEQLQRLKLLK [E14H], the protein stability index was 3.13.

For the variant LQRASILDMRRDHIEQLQRLKLLK [E14I], the protein stability index was 3.08.

Take LQRASILDMRRDHFEQLQRLKLLK [E14F]: the protein stability index amounted to 2.38.

For the variant LQRASILDMRRDHVEQLQRLKLLK [E14V], the protein stability index stood at 2.69.

In the case of LQRASILDMRRDHPEQLQRLKLLK [E14P], the protein stability index turned out to be 2.82.

LQRASILDMRRDHREQLQRLKLLK [E14R]: the protein stability index was 2.98.

Turning to LQRASILDMRRDHDEQLQRLKLLK [E14D], the protein stability index was 3.6.

As to LQRASILDMRRDHSEQLQRLKLLK [E14S], the protein stability index was 2.95.

Regarding LQRASILDMRRDHMEQLQRLKLLK [E14M], the protein stability index is 2.56.

Consider LQRASILDMRRDHGEQLQRLKLLK [E14G], for which the protein stability index was 3.12.

For the variant LQRASILDMRRDHAEQLQRLKLLK [E14A], the protein stability index was 3.32.

Consider LQRASILDMRRDHCEQLQRLKLLK [E14C], for which the protein stability index amounted to 2.79.

As to LQRASILDMRRDHEEALQRLKLLK [Q16A], the protein stability index is 3.18.

As to LQRASILDMRRDHEENLQRLKLLK [Q16N], the protein stability index came to 3.48.

Regarding LQRASILDMRRDHEEMLQRLKLLK [Q16M], the protein stability index worked out at 1.38.

Turning to LQRASILDMRRDHEECLQRLKLLK [Q16C], the protein stability index was 3.09.

Take LQRASILDMRRDHEEELQRLKLLK [Q16E]: the protein stability index is 3.64.

Consider LQRASILDMRRDHEELLQRLKLLK [Q16L], for which the protein stability index is 2.73.

As for LQRASILDMRRDHEESLQRLKLLK [Q16S], the protein stability index worked out at 3.43.

On to LQRASILDMRRDHEEFLQRLKLLK [Q16F], for which the protein stability index turned out to be 1.73.

For the variant LQRASILDMRRDHEEHLQRLKLLK [Q16H], the protein stability index was determined as 2.64.

In the case of LQRASILDMRRDHEEDLQRLKLLK [Q16D], the protein stability index worked out at 4.02.

LQRASILDMRRDHEETLQRLKLLK [Q16T]: the protein stability index stood at 3.45.

LQRASILDMRRDHEEGLQRLKLLK [Q16G]: the protein stability index is 4.09.

Consider LQRASILDMRRDHEERLQRLKLLK [Q16R], for which the protein stability index turned out to be 2.77.

As for LQRASILDMRRDHEEVLQRLKLLK [Q16V], the protein stability index was 3.04.

Turning to LQRASILDMRRDHEEPLQRLKLLK [Q16P], the protein stability index was determined as 3.51.

As to LQRASILDMRRDHEEILQRLKLLK [Q16I], the protein stability index amounted to 2.28.

For LQRASILDMRRDHEEYLQRLKLLK [Q16Y], the protein stability index was 2.75.

With LQRASILDMRRDHEEWLQRLKLLK [Q16W], the protein stability index worked out at 2.97.

On to LQRASILDMRRDHEEKLQRLKLLK [Q16K], for which the protein stability index was determined as 3.61.

In the case of LQRASILDMRRDKEEQLQRLKLLK [H13K], the protein stability index came out at 2.68.

LQRASILDMRRDNEEQLQRLKLLK [H13N]: the protein stability index came to 3.95.

In the case of LQRASILDMRRDFEEQLQRLKLLK [H13F], the protein stability index came to 3.17.

With LQRASILDMRRDYEEQLQRLKLLK [H13Y], the protein stability index worked out at 2.83.

As to LQRASILDMRRDEEEQLQRLKLLK [H13E], the protein stability index was determined as 4.15.

Regarding LQRASILDMRRDPEEQLQRLKLLK [H13P], the protein stability index turned out to be 3.33.

On to LQRASILDMRRDLEEQLQRLKLLK [H13L], for which the protein stability index was found to be 2.36.

Regarding LQRASILDMRRDDEEQLQRLKLLK [H13D], the protein stability index worked out at 3.69.

Turning to LQRASILDMRRDQEEQLQRLKLLK [H13Q], the protein stability index is 3.4.

Turning to LQRASILDMRRDSEEQLQRLKLLK [H13S], the protein stability index was 3.84.

Turning to LQRASILDMRRDTEEQLQRLKLLK [H13T], the protein stability index came to 3.27.

With LQRASILDMRRDIEEQLQRLKLLK [H13I], the protein stability index worked out at 2.54.

With LQRASILDMRRDAEEQLQRLKLLK [H13A], the protein stability index came to 3.89.

As to LQRASILDMRRDREEQLQRLKLLK [H13R], the protein stability index is 3.19.

In the case of LQRASILDMRRDWEEQLQRLKLLK [H13W], the protein stability index turned out to be 2.38.

Take LQRASILDMRRDMEEQLQRLKLLK [H13M]: the protein stability index amounted to 3.13.

On to LQRASILDMRRDGEEQLQRLKLLK [H13G], for which the protein stability index turned out to be 3.25.

Consider LQRASILDMRRDCEEQLQRLKLLK [H13C], for which the protein stability index was 2.2.

For the variant LQRASILDMRRDVEEQLQRLKLLK [H13V], the protein stability index stood at 2.46.
